# Measurements from article doi:10.1101/2024.11.22.624870.
# Biological target: camel APN (aminopeptidase N) (camel)
substance,measurement,value
hCoV/229E-inf1 spike protein (S) (from UniProt P15423 16-1173) (natural protein),"pseudovirus entry, percentage of usage (min-max scaled), without hTMPRSS2",3%
